Assay results from EP4631972A1, “SITE-SPECIFIC COUPLED PEGYLATED INTERLEUKIN-2 MUTANT WITH RECEPTOR AFFINITY PREFERENCE AND USE THEREOF” (priority 2022, dated 2024).

Tests used:
[1] = target: T1, IL-2βγ dual receptor (Homo sapiens, UniProt P14784+P31785); assay: STAT5 reporter gene assay, activation of IL-2βγ dual receptor in 293EC18/βγ/JAK3/STAT5 cells; type: cell-based
T1 construct: Uniprot P14784 1Met-551Val was constructed into plasmid pcDNA3.1(+); Uniprot P31785 1Met-551Thr was constructed into plasmid pcDNA3.1/zeo; expressed in transfected cells; host or cells: 293EC18 cells, transient co-transfection with pCMV/JAK3 and PGL4.52/STAT5RE
T1 sequence (P14784 27-551): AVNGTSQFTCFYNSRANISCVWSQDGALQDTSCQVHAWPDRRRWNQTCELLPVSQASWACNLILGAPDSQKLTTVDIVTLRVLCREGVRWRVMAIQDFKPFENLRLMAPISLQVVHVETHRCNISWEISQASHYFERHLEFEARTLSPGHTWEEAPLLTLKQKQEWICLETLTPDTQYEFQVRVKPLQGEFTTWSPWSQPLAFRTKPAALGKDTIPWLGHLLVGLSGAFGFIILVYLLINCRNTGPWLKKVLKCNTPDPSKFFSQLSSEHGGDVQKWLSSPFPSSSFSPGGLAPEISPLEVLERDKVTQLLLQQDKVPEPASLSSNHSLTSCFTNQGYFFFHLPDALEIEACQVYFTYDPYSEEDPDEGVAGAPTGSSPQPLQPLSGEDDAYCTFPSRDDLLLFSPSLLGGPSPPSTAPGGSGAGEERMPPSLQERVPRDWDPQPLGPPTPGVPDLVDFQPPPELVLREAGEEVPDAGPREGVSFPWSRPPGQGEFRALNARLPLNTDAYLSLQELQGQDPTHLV
T1 sequence (P31785 23-369): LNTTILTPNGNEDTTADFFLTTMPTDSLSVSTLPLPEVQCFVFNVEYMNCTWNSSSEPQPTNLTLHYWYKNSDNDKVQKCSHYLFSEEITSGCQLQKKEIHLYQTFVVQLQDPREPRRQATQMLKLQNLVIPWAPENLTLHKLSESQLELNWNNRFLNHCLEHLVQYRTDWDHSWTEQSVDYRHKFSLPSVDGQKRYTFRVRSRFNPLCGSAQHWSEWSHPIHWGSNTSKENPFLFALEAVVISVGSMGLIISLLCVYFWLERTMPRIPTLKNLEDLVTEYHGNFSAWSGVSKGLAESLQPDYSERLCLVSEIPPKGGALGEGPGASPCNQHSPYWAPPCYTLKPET
Experimental: (§1) Since the binding of IL-2 to the β and γ subunits of its receptor induces STAT5 phosphorylation, which subsequently leads to dimerization and translocation into the nucleus to promote target gene transcription, this example evaluates the ability of the mutant IL-2 polypeptides to induce signaling through the IL-2 receptor by measuring STAT5 phosphorylation.
Adherent 293EC18 cells were cultured to about 90% confluence using conventional methods. After trypsin digestion, the cells were resuspended in cell culture medium to 4×10^5 cells/ml and 50 µl/well were added to two 96-well cell culture plates. After incubation at 37°C for 48 h, the supernatant was aspirated and fresh culture medium was added. According to the manufacturer's method, four plasmids, pcDNA3.1(+)/CD122 (constructed by Nanjing Novoacine Biotechnology Co., Ltd, Uniprot P14784 1Met-551Val was constructed into plasmid pcDNA3.1(+)), pcDNA3.1/puro/CD132 (constructed by Nanjing Novoacine Biotechnology Co., Ltd, Uniprot P31785 1Met-551Thr was constructed into plasmid pcDNA3.1/zeo), pCMV/JAK3 (Sino Biological), and PGL4.52/STAT5RE (Promega) were transiently transfected into 293EC18 cells using a cationic transfection reagent (ExFect Transfection Reagent, Vazyme). The obtained cells were named 293EC18/βγ/JAK3/STAT5 cells. Alternatively, five plasmids, pcDNA3.1/zeo/CD25 (constructed by Nanjing Novoacine Biotechnology Co., Ltd, Uniprot P01589 1Met-551Ile constructed into plasmid pcDNA3.1/zeo), pcDNA3.1(+)/CD122 (constructed by Nanjing Novoacine Biotechnology Co., Ltd, Uniprot P14784 1Met-551Val constructed into plasmid pcDNA3.1(+)), pcDNA3.1/puro/CD132 (constructed by Nanjing Novoacine Biotechnology Co., Ltd, UniprotP31785 1Met-551Thr constructed into plasmid pcDNA3.1/zeo), pCMV/JAK3 (Sino Biological), and PGL4.52/STAT5RE (Promega) were transiently transferred into 293EC18 cells, and the obtained cells were named 293EC18/αβγ/JAK3/STAT5 cells. The transfected cells were incubated at 37°C and 5% CO2 for another 6 h.
Each IL2 mutant was diluted 4-fold in a gradient manner using PBS buffer, with a total of 11 dilutions and a starting concentration of 65.2 nM. In the above cell culture plates, 50 µl/well of each of the serially diluted IL2 mutant samples was added in duplicate. Then, the cell culture plate was placed in an incubator at 37°C and 5% CO2 for overnight culture. The cell culture plates were kept at room temperature for 20 ± 5 minutes to equilibrate the plates to room temperature. Bio-Lite Luciferase Assay System reagents that have been mixed and equilibrated to room temperature were added to the cell culture plates to be tested at 100 µl/well, placed on a microplate shaker at 450 rpm to mix for 2 minutes, then allowed to stand at room temperature for 3 minutes, and the chemiluminescence value was detected with an enzyme plate reader.
(§2) The logarithm of the final concentration of each IL-2 mutant sample was used as the X-axis, and the chemiluminescence detection results were used as the Y-axis for plotting. Data were analyzed using the four-parameter logistic regression model in GraphPad Prism 9. Table 2 EC50 values for the activation of the IL-2αβγ triple receptor by PEG-IL-2 mutants as determined by a reporter gene assay.
(§3) According to the method of Example 3, each polyethylene glycol-modified mutant obtained in this example was assessed for the binding preference to the IL2 receptors by a reporter assay. Table 4 EC50 values for the activation of the IL-2αβγ triple receptor by PEG-IL-2 mutants as determined by a reporter gene assay.
Referring to Example 3, the phosphorylation of STAT5 was used to evaluate the ability of the PEG-modified IL-2 mutants having a non-natural amino acid mutation prepared in Example 14 to induce signal transduction via the IL-2 receptor. […]

[2] = target: T2, IL-2αβγ triple receptor (Homo sapiens, UniProt P01589+P14784+P31785); assay: STAT5 reporter gene assay, activation of IL-2αβγ triple receptor in 293EC18/αβγ/JAK3/STAT5 cells; type: cell-based; conditions: Example 3, Table 2 and Figure 3
T2 construct: Uniprot P01589 1Met-551Ile constructed into plasmid pcDNA3.1/zeo; Uniprot P14784 1Met-551Val constructed into plasmid pcDNA3.1(+); Uniprot P31785 1Met-551Thr was constructed into plasmid pcDNA3.1/zeo; expressed in transfected cells; host or cells: 293EC18 cells, transient co-transfection with pCMV/JAK3 and PGL4.52/STAT5RE
T2 sequence (P01589 22-272): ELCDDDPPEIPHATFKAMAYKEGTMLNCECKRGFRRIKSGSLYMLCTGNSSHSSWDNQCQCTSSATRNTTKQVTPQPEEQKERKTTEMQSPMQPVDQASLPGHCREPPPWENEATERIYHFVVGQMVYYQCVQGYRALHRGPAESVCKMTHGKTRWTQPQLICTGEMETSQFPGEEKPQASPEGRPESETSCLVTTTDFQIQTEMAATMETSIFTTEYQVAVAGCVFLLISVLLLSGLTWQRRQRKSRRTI
T2 sequence (P14784 27-551): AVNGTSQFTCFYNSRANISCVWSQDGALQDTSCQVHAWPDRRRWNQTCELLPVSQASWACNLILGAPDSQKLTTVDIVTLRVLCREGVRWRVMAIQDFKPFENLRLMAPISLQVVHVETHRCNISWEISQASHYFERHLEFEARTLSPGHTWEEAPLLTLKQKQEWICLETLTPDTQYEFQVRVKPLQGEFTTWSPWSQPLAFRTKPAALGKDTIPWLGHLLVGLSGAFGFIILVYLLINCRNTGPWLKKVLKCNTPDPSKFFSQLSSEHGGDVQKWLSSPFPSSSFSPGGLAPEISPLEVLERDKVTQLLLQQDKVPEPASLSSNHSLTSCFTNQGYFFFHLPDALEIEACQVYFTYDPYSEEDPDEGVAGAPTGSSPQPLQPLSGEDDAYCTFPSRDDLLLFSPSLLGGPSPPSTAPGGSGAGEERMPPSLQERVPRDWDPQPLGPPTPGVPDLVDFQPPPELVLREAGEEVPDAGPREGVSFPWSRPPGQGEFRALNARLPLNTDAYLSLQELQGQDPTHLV
T2 sequence (P31785 23-369): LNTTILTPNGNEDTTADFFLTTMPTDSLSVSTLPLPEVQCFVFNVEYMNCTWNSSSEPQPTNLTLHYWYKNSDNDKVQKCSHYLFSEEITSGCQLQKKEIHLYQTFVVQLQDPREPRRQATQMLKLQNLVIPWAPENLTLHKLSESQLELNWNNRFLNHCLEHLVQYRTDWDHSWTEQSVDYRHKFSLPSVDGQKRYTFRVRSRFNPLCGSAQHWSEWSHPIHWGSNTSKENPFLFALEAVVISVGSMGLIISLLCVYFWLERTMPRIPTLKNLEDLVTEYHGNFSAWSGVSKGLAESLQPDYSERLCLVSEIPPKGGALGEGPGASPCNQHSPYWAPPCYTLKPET
Experimental: as §1
Adherent 293EC18 cells were cultured to about 90% confluence using conventional methods. After trypsin digestion, the cells were resuspended in cell culture medium to 4×10^5 cells/ml and 50 µl/well were added to two 96-well cell culture plates. After incubation at 37°C for 48 h, the supernatant was aspirated and fresh culture medium was added. […]
Each IL2 mutant was diluted 4-fold in a gradient manner using PBS buffer, with a total of 11 dilutions and a starting concentration of 65.2 nM. […] Bio-Lite Luciferase Assay System reagents that have been mixed and equilibrated to room temperature were added to the cell culture plates to be tested at 100 µl/well, placed on a microplate shaker at 450 rpm to mix for 2 minutes, then allowed to stand at room temperature for 3 minutes, and the chemiluminescence value was detected with an enzyme plate reader.
as §2
as §3, with “gene assay. […]” for “gene assay.”

B1: 80k-1PEG-IL2-N88R-N33C: IL-2 mutant N88R, N33C with one 80k PEG conjugated to cysteine 33 (conjugate)
chain: APTSSSTKKTQLQLEHLLLDLQMILNGINNYKC(PEG 80 kDa)PKLTRMLTFKFYMPKKATELKHLQCLEEELKPLEEVLNLAQSKNFHLRPRDLISRINVIVLELKGSETTFMCEYADETATIVEFLNRWITFSQSIISTLT
activation effect on the IL-2Rβγ dual receptor compared with control IL-2 N88R ([1]; Figure 1, concentration of 65.2 nM): lower activation effects | activation effect on / affinity to IL-2Rβγ dual receptor compared with control IL-2 N88R ([1]; Figure 2, all concentrations): further reduced the affinity to IL-2Rβγ | activation of the IL-2Rαβγ triple receptor compared with the control IL2-N88R [2]: even stronger activation
